# Test: protease stability score; higher = more stable; yeast display proteolysis, trypsin and chymotrypsin;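 also: log10 excess protease needed over predicted unfolded state with 0 meaning unfolded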
row,Sequence,protease stability score
1,DEHAKDVFDTLREARKRGDEDTMKRQVDPNAKAQVGDKTYHGSDEIARRLTEENRESRVEYHTMSVEIQGDHVVVRFRARYEHNGQPSHFHAVEVVKADNGQIVFLVLQETK,0.06
2,DEHAKELAKEFMEAWTKGDPDKAATLADPNVRANVGEFNVHGREDAHRAVDRFRRQMHVELDIRSMRVQGNKVQVDVSVTVTHNGRPHSNRYVVLIIFHNGRIRSVHRRREG,0.176
3,DEHAKHVVETYMTAQKHNNPKDAQKMVDPNARFSVGDKEVQGSEQLDKEIQRDNKEIREHVESMSVDVDGDKAHVDRTVKFQRNGKPHKLKVHLNFRLTNGRIKTVQVDEDG,-0.308
4,DEHAKKLAERILEAISNNNEEDIQKNIDPNAKIQVGDRQVHGREDLQKQYQDFRHHARIQNRLRSVRADGDHVTLEIEVVFKVNGNPVNNTVNMSMVIENGRVKMREVQVPEEVQDTIDQ,0.075
5,DEHAKKRLEEWLRNRQQGDDERLVQMADPNVRIEYGDKSFKGRDDVREWAQKESKSMDLQLKSVDLKVSGDKVDAKITFTQDENGKPDHATMNLVMKQDNGHIKVLRYEVTK,0.084
6,DEHAKRVLHEWLRAIQTGDPDKAMRLADKDARIRVGDKVISGREQLHKWVETLKKHIKVQIEDFNIEVHGEELELNIVATLNDNGEPQRSRWVVTVIIRNGEMKSLTQRDDS,0.009
7,DEHAKRVVEKAWKALDTGDPKTMEDMLDPNARQRYGDTSVHGRENIIHKLEKDSKEIRFKIKIDNITVHGDKIDVRMLVTERRDGQPRQTHRVATFRIHNGRLEEADFQKDG,-0.073
8,DEHAMERIDDFFQALRNGDPKNLKEQIDPNVSLHYGDKEVTGKDRAAKEMAQIFRHIRLEFDIKSVSAHNGRVTVNAEVVDEENGRPHSRRVQNNAVWHNGVIQSFHVKETK,-0.402
9,DEHANETVKRILRDIRHNNPHEIRKNMDPNAKVVIGDKTIHGREEAARQLKREMHEIRVEVKHIDMKVHDGRVNVNFDVVLDSNGNPQRQSYRMVVRVHNGTVHYLSKSDTR,-0.041
10,DEHAQKLLEKEKDALERNNPDHFRDMVDKDARLRVGNKVIHGREQVSEDVERKRDEMRYRFEIKHVQVHNGQIDADVVQVVNVNGHPVRNKYRITVNVTNGRAKQVTVRIDEDTLRKMDR,-0.027
11,DEHAQKRASQLVDKQNTGNPESIANYMDPNAKVQVGENRVHGREEIETLVKQKNKEARYEYNVESMSIQGDKLTMHLHAVVEINGQPLEFKVRVDFTFHNGRIRDVYYQLPEELLEELKR,0.165
12,DEHARDRATQMIEAIHNGDPDTLQELLDEDAHIQIGDKEIHGHDQASRELRRRREEQNVDVRVRDLKVTGERVKIDVEIRVSHNGQPTETKVTIDVEAHNGKIKDLRMRTSQ,0.15
13,DEHARHLVSELLRALESGDPDQLVKMADPNVEAQIGDKRYTGRSHMKKMQEDLKREMRYHVTDFHVEVNGNTAVADVDASVEHNGQPRRHRYRIVITFENGRAKDFSIQRDK,1.12
14,DEHARKQFEDLIRALSTGDPERVAQLVDPNAHFQVGDQTIHGREHLMEDVKRRRDKMRMELHVDHVKVDENHLDAIIRVVQDTNGDPDHKKYRLVAQWQNGRVNNQEMQETS,0.541
15,DEHARRLVKKFIEAMKHGDPDKLMKLADPNVKFDIGDHQFKGSHEANKWLERMVRHMRFSLKVDSVKAHNGRVEVDAVFTFEVNGKPDQQRFTLDFHFNNGRVQNLTWDVDPRDWRKQLK,0.73
16,DEHARSVMRQFVHALNTGDPDEASRQVDKNVKATYGDKSVHGRESVKEWLEKLVKRMRVEVDLKTVHAQGDTVTAKAHLTAEVNGRPFKVDVHIEATVQNGKIKELVVDFDEHFTEQVES,2.56
17,DEHAVEVAKKIVEAWKDGDPKRFNELFDPNAQLRVGDHHFHGSHEADRHMQTINKEQRVRYKNVRVESRPGRVEVRVDMEKTHDGRPRRSEFTVQINVHDGQVKKLTVQEDG,0.239
18,DEHAVRRLQEFARVLERGDESKAEQYLDPEVRITVGDREINGMKTFNNFLQEVSRQMRFSLQHVEARARNGKARIIMHFQVDHNGNPEQQRIDITASLHNGRMKRMHMRTDR,0.031

row,Sequence,protease stability score
1,DEHDAAKRAEEAVRRANSGDEKDALRLIDPNATVQVGDKNYHGREQVRRVVEELTERFDHIQFKHVSLQGNRVTARADATHNGRTEKMIFIVRAHNGRVKSWKIESS,-0.093
2,DEHDAESIQSVLTNGNFESMDELADKDVHVDVGNKRYHGQEQFRTLQTHYKNRVDHVDMHRLTQDGEKINADMRAVVNGKDFQFELVIKVHNGRIRRLQLNFTSDSQDKEHEERLR,0.496
3,DEHDEARKFADKFVKALRDGDETLVNKLVDPNAKFVIGDKDYHGRKAASTLMHEWKNRVDEQEVKIKRISVRNGRANVDVEMVMNVDGHRVHFRVIIYAERRDGRLRVVRIEAR,1.52
4,DEHDEKIVQTFLTALRTGDEEELQKNMDPNVSVHIGDQEVNGREEIARQLKKEQDEMRVDIRRYHISAHNGRVEVRIKFTAEVNGKPNRFTVVYDFVLHNGHIEKMHVKMSREDKKKKKQ,-0.189
5,DEHDITKIMEEIAKVIRNNDEKRLVEMADPNVRVIVGDKEFQGRDEMEKFNHEYSRQADKVQVVSVNVNGNRITIEVTANINGRDLQFVVVFEIKNGTIENVHVNFTNPEVLRQAES,1.19
6,DEHDLDKWRQVMEHNDFDKLVRLADPNVKIVVGDQEYHGREQYKELMDKLEHHVDHMELHSVSITNGEVHARLTVIINGKSIEYVFKFVVDNGKLKKLRIQFTDPEDEKIWKRAMS,1.7
7,DEHDMAHKFFHDLVEAAKTGDRDKIKRLADPNVKIEYGDKRLHGHKDYANFIQKIVERVDSVNFQLQSVSVTGDKVRMIYTLDVVENGQKRTDRLQIEAQIHNGDIIAKRVVEG,0.873
8,DEHDTEVAERALNDLKTGDPDKVTEMADKHVKYVVGEKRIQGRETYAKTVEKERDEIRVDWSVHNIQVHNGKLDVSAEFRFTVNGQPNSDSARWEFTLRNGKIQEVVMKVSDRFLKQMRS,-0.15
9,DEHDVRELLKALTTGNEDDMRKMLDKDVTANIGNFRVKGREQQLTLIRRMLERADHLSVTSFSSHNGNVEVDVQVTVDGRRIRYVIRAQAHNGKVNSVRMDVTDHSVEQTLRHLHS,1.36
10,DEHEAEKLLKLLTENDPRQFQNEADKNVRVFYGDKEVHGREQFHTWVQRVRERVDTLEIKRVETRPGRLEVKFRVNVNGQTLEMVLVIVVHNGKIQDVKLHARDHDVMKRWKEAVS,0.82
11,DEHEAKKMSEMFKNLATGNPDTAKRQFDKDASVQIGDKVVHGREHLSRTLKRRRDQIRVVVEDVKVTVNGDKAEIQVIFSWEHNGEPRRSVYFATVHWHNGNVKKVTVTEQS,-0.121
12,DEHEEAKKVADRMIEVEKTGDEDSLTENFDPNVRFKIGDRTYHGEKDMQQLLREIKERADHIDIDVKHVTAHNGRADIDRVRVIQVDGQRRKQRIRMDLTFHNGRLHLKQMKVD,0.31
13,DEHEKMKKHMTEWRSAFKRGDPDTVRKLADKDVDVEVGDKVLHGREQVANHVVDLARTVDHVDIRIETMEVNGDHFVLVMSAVFDVNGKRDERKFVLVAKLHNGTIKVKNMKRS,0.07
14,DEHEKQKKAKDAADLIRHNNPERVAELFDEDARVRVGDHTYHGREHIVRVLQTLVDQIDHMQLTDLDVHGETLRLHIVMQINGKKVDMQLDIELKNGKMKRMRFDPDRVRDVQK,0.466
15,DEHELNKFEQLLRDRETGDEEHLKRLMDKDARVNVGDKNVHGREEAANQQVERVKRMDVRILHMDLKDNNGKINADITRIIHTNGHPDKHQFVLTVDVKNGRVQNIRQDDTS,-0.284
16,DEHELREILDKANEAWKRNDPDEMVKQADKDVEVKIGDKDFHGREEAHEAMKELHDRADHISIRDYDASGNKARIHMYIVVNGRRVDFVVIIVVRNGRIQKIELNVRDEKAKSNLKQ,1.09
17,DEHELRRQADDFWHAVRTGDEKRIVELLDPNAHAVVGDKRYHGEKQIRQLVRSMREQVDTFRVSSITVSGDDIEIDIVLNVNGREFRATIVLRQHNGKVTELKLHPNINRALES,1.28
18,DEHEMKKVADQIVDILRTGDQDRFRDLADPNVRVSVGDKTVHGRHQAQQQVKRLKDQVDHVQLKDMKIHGNTVVVKAHVEINGNTTDRDVKFELHNGRVSHLTIDPEAQKVMDT,0.273

# Source: the NTF2 design screens of Basanta et al. (2020)
